Tests used:
HIV-1 virions [1] = assay: CAT activity assay of HIV-1 virions from co-transfected 293T cells (incorporation into virions); format: cell-based
Method: About 10^6 293T cells were grown in dishes having a diameter of 10 centimeters. These cells were co-transfected with 10 micrograms of either plasmid pNL4-3 or plasmid pNL4-3DVpr, and with 10 micrograms of a plasmid selected from the group consisting of plasmid pSLXCMV-CAT, plasmid pSLXCMV-VPR-CAT, and plasmid pSLXCMV-dWF-CAT. After transfection, the cells were incubated in medium for about seven hours. The medium was then removed and replaced with fresh medium, and cells and medium were collected about forty-eight hours after the medium was replaced. At that time, the medium comprised virus produced by the cells. The amount of virus present in the medium was determined by assessing the amount of HIV-1 p24 antigen in the medium, using a p24 ELISA kit obtained from Dupont (Wilmington, Del.).
CAT activity assays were performed as described (Refaeli et al., 1995, Proc. Natl. Acad. Sci. USA 92:3621-3625). Briefly, about 10^6 transfected cells were harvested by centrifugation. Pelleted cells were lysed in 0.9 milliliter of CAT lysis buffer (Promega Corp., Madison, Wis.) to yield a crude extract. 50 microliters of crude extract was used in CAT assays, and the results of the assays were normalized to account for variation in the protein content of the various crude extracts which were made.
Virions obtained from the medium in which transfected 293T cells were grown were concentrated by ultracentrifuging the medium in a Sorval A-621 rotor for about three hours at 20,000 rotations per minute. […] The amount of HIV-1 p24 antigen in each fraction was assessed, and fractions containing the greatest amounts of p24 were selected. […] CAT activity was assessed in lysed virion preparations.
CAT activity was assessed by thin-layer chromatographic separation of ^14C-chloramphenicol from its acetylated derivatives. Radioactivity was quantitated by standard liquid scintillation methods. […]

[2] = test system: IN-Defective HIV-1 Particles; assay: Syncytia formation assay with IN-defective HIV-1 particles complemented with IN chimeras; format: cell-based
From the text: Using the calcium phosphate method for delivery of DNA into cells (Profection™, Promega Corp., Madison, Wis.), cells of human kidney carcinoma cell line 293T were transfected using HIV-1 proviral clones or co-transfected with these templates and SLX-CMV-VPR-IN, SLX-CMV-VPR-PR-IN, SLX-CMV-WF-IN, or SLX-CMV-dWF-PR-IN. Three days post-transfection, cell supernatants containing virus were harvested and clarified by low-speed centrifugation. HeLa-CD4-LTR/β-gal cells grown in either 60×14 or 35×10 millimeter plates were infected in duplicate at about 10-15% confluence using various viral stocks. Addition of supernatant to these MAGI reporter cells was adjusted, based upon HIV-1 p24 antigen content as quantitated by ELISA analysis (Kimpton et al., 1992, J. Virol. 66:2232-2239). MAGI cells contain an integrated cassette comprising the β-galactoside gene (β-gal) under the control of the HIV-1 long terminal repeat, and therefore can be stained for β-galactosidase activity (typically 48-72 hours post-infection).
Infected cells were fixed in a solution comprising 0.2% (v/v) glutaraldehyde and 1% (v/v) formaldehyde for 5 minutes at room temperature. Following fixation, cells were washed with phosphate buffered saline and stained using bromo-4-chloro-3-indolyl-β-D-galactopyranoside for 2 hours at 37° C. Representative fields of stained cells were photographed and numbers of deeply stained syncytia were determined either by visual counting through a microscope or from series of photographs taken in various fields of the stained cells using an Olympus CK2 microscope.
IN activity was detected using the syncytia formation assay described in this Example.

HIV-1 virions [3] = assay: Western blotting analyses of complemented HIV-1 virions; conditions: integration-competent progeny virions
Method: 293T cells were grown in duplicate 100×20 millimeter culture dishes and transfected as described in the previous section. Virions released into the cell culture medium 2 ½ to 3 days post-transfection were centrifuged at 2000 rpm for 5 minutes at 4° C. to remove cellular debris. Afterward, virions were concentrated by adding 10 milliliters of cell medium atop 2 milliliters of buffered, isotonic 20% (w/v) sucrose, and ultracentrifuging the cushioned medium at 40,000 rpm for 2 hours. The bulk of the solution was removed by careful pipetting, and pelleted virions (visible as slight white pellets) were removed from the bottom of the ultracentrifuge tubes by resuspension in residual medium, typically resulting in a volume of 60 to 100 microliters of concentrated virus particles.
Particles were loaded into 10-20% (w/v) Tris-HCl or Tris-tricine precast gradient gels (Bio-Rad Laboratories, Richmond, Calif.) and electrophoresed until the bromphenyl blue marker migrated to at least the bottom of the gel. […] IN or IN chimera proteins were detected using a rabbit anti-IN polyclonal serum and visualized by chemiluminescence development (NEN Life Science Products) of bound HRP-conjugated anti-rabbit 1gG antisera used at 1/1500 dilution (Sigma Chemical Co., St. Louis, Mo.).

[4] = virions from 293T cells co-transfected with pNL4-3 (Vpr expressed)
[5] = HIV-1 provirus template D116N (Table 4)
[6] = HIV-1 provirus template D116N, average of duplicate experiments (Table 4)
[7] = HIV-1 provirus template IN (1-4) (Table 5)
[8] = HIV-1 provirus template IN (1-234) (Table 5)

Molecule	CAT activity of virions (conversion of chloramphenicol to an acetylated product) (HIV-1 virions [1]; [4])	CAT activity of virions (conversion of chloramphenicol to an acetylated product) (HIV-1 virions [1]; virions from 293T cells co-transfected with pNL4-3DVpr (Vpr not expressed))	% of Wild Type (syncytia) [2, 5]	Number of Syncytia Formed [2, 6]	Number of Syncytia Formed [2, 7]	Number of Syncytia Formed [2, 8]	amount of fusion protein incorporated into progeny virions (HIV-1 virions [3])	% of Wild Type (syncytia) ([2]; HIV-1 provirus template IN (1-234) (Table 4))	Number of Syncytia Formed ([2]; HIV-1 provirus template IN (1-234), average of duplicate experiments (Table 4))
CAT: chloramphenicol acetyltransferase, a protein which does not normally comprise a Vpr-binding region (protein) MEKKITGYTTVDISQWHRKEHFEAFQSVAQCTYNQTVQLDITAFLKTVKKNKHKFYPAFIHILARLMNAHPEFRMAMKDGELVIWDSVHPCYTVFHEQTETFSSLWSEYHDDFRQFLHIYSQDVACYGENLAYFPKGFIENMFFVSANPWVSFTSFDLNVANMDNFFAPVFTMGKYYTQGDKVLMPLAIQVHHAVCDGFHVGRMLNELQQYCDEWQGGA	8 % conversion	–	–	–	–	–	–	–	–
WF-CAT (protein) MQPWWAFFGGGSSWWSFSMGPTRMEKKITGYTTVDISQWHRKEHFEAFQSVAQCTYNQTVQLDITAFLKTVKKNKHKFYPAFIHILARLMNAHPEFRMAMKDGELVIWDSVHPCYTVFHEQTETFSSLWSEYHDDFRQFLHIYSQDVACYGENLAYFPKGFIENMFFVSANPWVSFTSFDLNVANMDNFFAPVFTMGKYYTQGDKVLMPLAIQVHHAVCDGFHVGRMLNELQQYCDEWQGGA	28 % conversion	8 % conversion	–	–	–	–	–	–	–
dWF-IN: dWF peptide (SEQ ID NO: 1) fused at its carboxyl terminus to the amino terminus of HIV-1 IN (protein) MQPWWAFFGGGSSWWSFSMGPTRFLDGIDKAQEEHEKYHSNWRAMASDFNLPPVVAKEIVASCDKCQLKGEAMHGQVDCSPGIWQLDCTHLEGKVILVAVHVASGYIEAEVIPAETGQETAYFLLKLAGRWPVKTVHTDNGSNFTSTTVKAACWWAGIKQEFGIPYNPQSQGVIESMNKELKKIIGQVRDQAEHLKTAVQMAVFIHNFKRKGGIGGYSAGERIVDIIATDIQTKELQKQITKIQNFRVYYRDSRDPVWKGPAKLLWKGEGAVVIQDNSDIKVVPRRKAKIIRDYGKQMAGDDCVASRQDED	–	–	20.8%	42	10	14	equal to the amount of IN(D116N) protein incorporated into progeny virions	–	–
dWF-PR-IN: dWF peptide (SEQ ID NO: 1) fused to the HIV-1 protease cleavage site (PR), which is fused to the amino terminus of IN (protein, left off: small tags and cut ends) MQPWWAFFGGGSSWWSFSMGPTRFLDGIDKAQEEHEKYHSNWRAMASDFNLPPVVAKEIVASCDKCQLKGEAMHGQVDCSPGIWQLDCTHLEGKVILVAVHVASGYIEAEVIPAETGQETAYFLLKLAGRWPVKTVHTDNGSNFTSTTVKAACWWAGIKQEFGIPYNPQSQGVIESMNKELKKIIGQVRDQAEHLKTAVQMAVFIHNFKRKGGIGGYSAGERIVDIIATDIQTKELQKQITKIQNFRVYYRDSRDPVWKGPAKLLWKGEGAVVIQDNSDIKVVPRRKAKIIRDYGKQMAGDDCVASRQDED	–	–	25.7%	52	18	20	–	21.7%	44

Source: patent US6541002B1, “Compositions and methods for providing a protein to a virion” (Thomas Jefferson University, priority 1998, dated 2003)
